Results from patent US20160185837A1 (Medimmune Limited, priority 2013, published 2016).

T1: human GIP receptor (hGIPr) (Homo sapiens, UniProt P48546)
T1 construct: expressed in transfected cells
T1 sequence (P48546 22-466): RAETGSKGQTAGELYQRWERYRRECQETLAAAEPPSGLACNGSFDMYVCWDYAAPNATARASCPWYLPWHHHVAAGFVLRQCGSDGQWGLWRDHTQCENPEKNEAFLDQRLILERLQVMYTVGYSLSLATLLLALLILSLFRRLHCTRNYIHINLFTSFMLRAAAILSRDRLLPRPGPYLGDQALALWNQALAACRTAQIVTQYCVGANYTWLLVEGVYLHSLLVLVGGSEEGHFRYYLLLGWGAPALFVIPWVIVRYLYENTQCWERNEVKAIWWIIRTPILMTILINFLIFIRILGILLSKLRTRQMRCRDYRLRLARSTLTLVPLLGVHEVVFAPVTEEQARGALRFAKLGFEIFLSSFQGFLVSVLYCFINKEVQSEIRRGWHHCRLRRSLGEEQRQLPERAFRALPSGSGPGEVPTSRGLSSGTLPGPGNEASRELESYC


Tests used:
[1] = molecular target: T2, human GLP-1 receptor (hGLP-1r) (Homo sapiens, UniProt P43220); assay: BSA-cAMP assay, cells expressing human GLP-1 receptor; format: cell-based; settings: BSA-cAMP assay; batch 1 unless a batch is given; read-out: cAMP activity hGLP1r (EC50)
T2 construct: expressed in transfected cells
Protocol: (§1) One basic cAMP assays was performed, differing in the medium used for the assay, the “BSA-cAMP assay”:
(§2) BSA-based assay medium: 0.1% bovine serum albumin (BSA) in
(§3) In certain aspects, the assay can also be carried out in medium supplemented with serum albumin that corresponds to the receptor being tested, e.g., human serum albumin for testing cAMP activity at hGIPr or hGLP-1r, rat serum albumin for testing cAMP activity at rGIPr or rGLP-1r, and so on. […] All sample dilutions were made in duplicate.
(§4) A frozen cryo-vial of cells expressing the receptor of interest was thawed rapidly in a water-bath, transferred to pre-warmed assay media and spun at 240×g for 5 minutes. Cells were re-suspended in assay buffer at an optimized concentration (e.g., hGLP-1r and hGIPr cells at 0.5×10^5 cells/ml).
(§5) To this, 5 μL cell suspension was added and the plates incubated at room temperature for 30 minutes.
(§6) cAMP levels were measured using a commercially available cAMP dynamic 2 HTRF kit (Cisbio, Cat #62AM4PEJ), following the two step protocol as per manufacturer's recommendations. In brief; anti-cAMP cryptate (donor fluorophore) and cAMP-d2 (acceptor fluorophore) were made up separately by diluting each 1/20 in conjugate & lysis buffer provided in the kit. 5 μL anti-cAMP cryptate was added to all wells of the assay plate, and 5 μL cAMP-d2 added to all wells except non-specific binding (NSB) wells, to which conjugate and lysis buffer was added. […] Data was transformed to % Delta F as described in manufacturer's guidelines and then transformed to percent activation of maximal native agonist response and analysed by 4-parameter logistic fit to determine EC50 values.
(§7) We used unconstrained 4 parameter logistic fit of data, curve mid-point to determine EC50. This was tested on two occasions, not two batches.

[2] = molecular target: T1, human GIP receptor (hGIPr); assay: BSA-cAMP assay, cells expressing human GIP receptor; format: cell-based; settings: BSA-cAMP assay; batch 1 unless a batch is given; read-out: cAMP activity hGIPr (EC50)
Protocol: For human GIPr, two different lines were used, shown as “hGIPr” and “hGIPr (C3)” in Table 11.
as §1, §2, §3, §4, §5, §6, §7

T2 sequence (P43220 24-463): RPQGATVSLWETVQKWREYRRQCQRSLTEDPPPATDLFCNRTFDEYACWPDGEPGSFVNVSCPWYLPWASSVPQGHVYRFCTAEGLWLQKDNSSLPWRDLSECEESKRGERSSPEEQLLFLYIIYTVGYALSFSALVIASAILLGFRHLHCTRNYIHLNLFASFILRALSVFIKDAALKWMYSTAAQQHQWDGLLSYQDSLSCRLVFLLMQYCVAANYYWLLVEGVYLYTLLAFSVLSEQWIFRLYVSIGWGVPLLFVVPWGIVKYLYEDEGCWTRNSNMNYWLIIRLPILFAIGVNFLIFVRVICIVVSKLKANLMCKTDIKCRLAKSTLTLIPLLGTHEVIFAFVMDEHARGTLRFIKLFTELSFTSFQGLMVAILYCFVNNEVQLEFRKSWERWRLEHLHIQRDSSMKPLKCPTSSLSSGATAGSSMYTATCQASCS

Molecule | EC50 [1] [nM] | EC50 [2] [nM]
IP197 (protein, /note=“Description of Artificial Sequence Synthetic Peptide-linker-hinge polypeptide”) YSEGTFTSDVSSYMERQAIDEFIAWLLAGAAAGGSGSTASSGSGSATGGGGAATHTCPPCPAPEF | 0.78 | 0.18
IP171: Fc fusion, IgG1-TM, SEQ ID NO:142; agonist peptide YSEGTFTSDVSSYMERQAISEFIAWLLAG (protein, also: Fc fusion, IgG1-TM, agonist peptide YSEGTFTSDVSSYMERQAISEFIAWLLAG) YSEGTFTSDVSSYMERQAISEFIAWLLAGAAAGGSGSTASSGSGSATGGGGAATHTCPPCPAPEF | 0.53 | 0.39
IP208: isolated polypeptide named in b21; sequence stands in a table not shown here (protein, /note=“Description of Artificial Sequence Synthetic Peptide-linker-hinge polypeptide”) YSEGTFTSDVSSYLEGQAAKEFIAWLLAGAAAGGSGSTASSGSGSATGGGGAATHTCPPCPAPEF | 1.6 | 17
IP233 (protein, /note=“Description of Artificial Sequence Synthetic Peptide-linker-hinge polypeptide”) HGEGTFTSDVSSYLEEQAAKEFIAWLVKGAAAGGSGSTASSGSGSATGGGGAATHTCPPCPAPEF | 0.036 | 
IP230 (protein, /note=“Description of Artificial Sequence Synthetic Peptide-linker-hinge polypeptide”) HGEGTFTSDVSSYLEGQAAKEFIAWLVKGAAAGGSGSTASSGSGSATGGGGAATHTCPPCPAPEF | 0.056 | > 15000
IP199: isolated polypeptide named in b21; sequence stands in a table not shown here (protein, /note=“Description of Artificial Sequence Synthetic Peptide-linker-hinge polypeptide”) HGEGTFTSDVSSYLEGQAAKEFIAWLLAGAAAGGSGSTASSGSGSATGGGGAATHTCPPCPAPEF | 0.069 | 
IP173: isolated polypeptide named in b21; sequence stands in a table not shown here (protein, /note=“Description of Artificial Sequence Synthetic Peptide-linker-hinge polypeptide”) YSEGTFTSDVSSYLEEQAAKEFIAWLLAGAAAGGSGSTASSGSGSATGGGGAATHTCPPCPAPEF | 0.23 | 1.2
IP191 (protein, /note=“Description of Artificial Sequence Synthetic Peptide-linker-hinge polypeptide”) HGEGTFTSDVSSYLEGQAAKEFIAWLVKGAAAGGSGSTASSGSGSATGGGGAATYTCPPCPAPEF | 0.057 | 
IP192 (protein, /note=“Description of Artificial Sequence Synthetic Peptide-linker-hinge polypeptide”) HGEGTFTSDVSSYLEGQAAKEFIAWLVKGAAAGGSGSTASSGSGSATGGGGAATSTCPPCPAPEF | 0.043 | 
IP195 (protein, /note=“Description of Artificial Sequence Synthetic Peptide-linker-hinge polypeptide”) HGEGTFTSDVSSYLEGQAAKEFIAWLVKGAAAGGSGSTASSGSGSATGGGGESKYGPPCPPCPAPEF | 0.061 | 
IP204: isolated polypeptide named in b21; sequence stands in a table not shown here (protein, /note=“Description of Artificial Sequence Synthetic Peptide-linker-hinge polypeptide”) HGEGTFISDYSIAMDKIHQQDFVNWLLAQKAAAGGSGSTASSGSGSATGGGGAATHTCPPCPAPEF | 850 | 0.12
IP150: isolated polypeptide named in b21; sequence stands in a table not shown here (protein, /note=“Description of Artificial Sequence Synthetic Peptide-linker-hinge polypeptide”) YSEGTFTSDVSSYLEGQAAKEFIAWLVAGGAPPGGSGSTASSGSGSATGGGGAATHTCPPCPAPEF | 0.033 | 16
IP174: isolated polypeptide named in b21; sequence stands in a table not shown here (protein, /note=“Description of Artificial Sequence Synthetic Peptide-linker-hinge polypeptide”) HGEGTFTSDVSSYLEEEAAKEFIAWLVAGGAAAGGSGSTASSGSGSATGGGGAATHTCPPCPAPEF | 0.032 | 460
IP227 (protein, /note=“Description of Artificial Sequence Synthetic Peptide-linker-hinge polypeptide”) YSEGTFTSDVSSYMERQAIDEFVNDLLKGGAAAGGSGSTASSGSGSATGGGGAATHTCPPCPAPEF | 48 | 
IP176: Fc fusion, IgG1-TM, SEQ ID NO:143; agonist peptide YSEGTFTSDVSSYMERQAISEFIAWLLKGP (protein, also: Fc fusion, IgG1-TM, agonist peptide YSEGTFTSDVSSYMERQAISEFIAWLLKGP) YSEGTFTSDVSSYMERQAISEFIAWLLKGPAAAGGSGSTASSGSGSATGGGGAATHTCPPCPAPEF | 0.6 | 0.42
IP224 (protein, /note=“Description of Artificial Sequence Synthetic Peptide-linker-hinge polypeptide”) YSEGTFTSDVSSYMERQAIDEFIAWLLGGGAAAGGSGSTASSGSGSATGGGGAATHTCPPCPAPEF | 0.57 | 0.35
IP132 (protein, /note=“Description of Artificial Sequence Synthetic Peptide-linker-hinge polypeptide”) HGEGTFTSDVSSYLEGQAAKEFIAWLVKGGGGGGSGGGGSGGGGSGGGGSATHTCPPCPAPEF | 0.04 | 81
IP194 (protein, /note=“Description of Artificial Sequence Synthetic Peptide-linker-hinge polypeptide”) HGEGTFTSDVSSYLEGQAAKEFIAWLVKGAAAGGSGSTASSGSGSATGGGGPPCPPCPAPEF | 0.061 | 
IP187 (protein, /note=“Description of Artificial Sequence Synthetic Peptide-linker-hinge polypeptide”) HGEGTFTSDVSSYLEGQAAKEFIAWLVKGAPPGGGGGSGGGGSGGGGSGGGGSATHTCPPCPAPEF | 0.037 | 540
